From paper PMC12700824 (Nature Structural & Molecular Biology, 2025)

Tests used:
[1] = target: the molecule itself; assay: dynamic light scattering (DLS); FAM118B24–334 WT at 10 µM in PBS pH 7.4, 20 °C
[2] = target: the molecule itself; assay: SEC; analytical SEC, Superdex Increase 10/300 GL, 50 mM Tris pH 8, 200 mM NaCl, 0.5 mM TCEP; injection concentrations up to 20 µM (mutant mixture: 10 µM each); sizes are coarse estimates from globular standards
FAM118B24–334-F122R = target: T1, FAM118B24–334-F122R (human, UniProt Q9BPY3 24-334, F122R); assay: ITC; 25 °C, PBS; FAM118B24–334-L32R in the syringe at 500 µM titrated into FAM118B24–334-F122R in the cell at 50 µM; details: both partners purified
T1 construct: also called head-surface mutant; not shown: His6, C-terminal, kept

Row | Binder | stoichiometry N [1] | stoichiometry N [2] | stoichiometry N (FAM118B24–334-F122R)
1 | human FAM118B residues 24-334, C-terminally His-tagged, wild type (domain or fragment, UniProt Q9BPY3 24-334, looked up, not shown: His6, C-terminal, kept) PTKKPRKLLPSLKTKKPRELVLVIGTGISAAVAPQVPALKSWKGLIQALLDAAIDFDLLEDEESKKFQKCLHEDKNLVHVAHDLIQKLSPRTSNVRSTFFKDCLYEVFDDLESKMEDSGKQLLQSVLHLMENGALVLTTNFDNLLELYAADQGKQLESLDLTDEKKVLEWAQEKRKLSVLHIHGVYTNPSGIVLHPAGYQNVLRNTEVMREIQKLYENKSFLFLGCGWTVDDTTFQALFLEAVKHKSDLEHFMLVRRGDVDEFKKLRENMLDKGIKVISYGDDYADLPEYFKRLTCEISTRGTSAGMVREG | < 10 subunits | > 8 protomers | 
2 | FAM118B24–334-L32R (domain or fragment, human, UniProt Q9BPY3 24-334, looked up, also called tail-surface mutant; not shown: His6, C-terminal, kept) PTKKPRKLRPSLKTKKPRELVLVIGTGISAAVAPQVPALKSWKGLIQALLDAAIDFDLLEDEESKKFQKCLHEDKNLVHVAHDLIQKLSPRTSNVRSTFFKDCLYEVFDDLESKMEDSGKQLLQSVLHLMENGALVLTTNFDNLLELYAADQGKQLESLDLTDEKKVLEWAQEKRKLSVLHIHGVYTNPSGIVLHPAGYQNVLRNTEVMREIQKLYENKSFLFLGCGWTVDDTTFQALFLEAVKHKSDLEHFMLVRRGDVDEFKKLRENMLDKGIKVISYGDDYADLPEYFKRLTCEISTRGTSAGMVREG |  |  | ~1
